Laboratory results as given in patent publication US20210113587A1 (ADC THERAPEUTICS, published 2021).

Assays:
[1] = target: T1, human recombinant soluble CD25 ectodomain (human, UniProt P01589 22-240); test: SPR (Biacore CM3 chip), sCD25 ectodomain immobilised; run 3
T1 construct: extracellular domain; Immobilised on a Biacore CM3 chip; also called sCD25 ectodomain; human sCD25 ectodomain
T1 sequence (looked up): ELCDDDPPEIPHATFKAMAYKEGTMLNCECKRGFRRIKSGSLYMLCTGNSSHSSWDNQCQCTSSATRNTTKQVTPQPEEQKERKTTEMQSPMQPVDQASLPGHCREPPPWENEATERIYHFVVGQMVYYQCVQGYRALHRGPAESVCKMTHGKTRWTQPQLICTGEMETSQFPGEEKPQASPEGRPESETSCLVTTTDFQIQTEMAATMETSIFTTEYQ
Experimental: (§1) The equilibrium dissociation constant, KD, was calculated for both molecules using BIAevaluation ® software.

[2] = target: T1, human recombinant soluble CD25 …; test: SPR (Biacore CM3 chip), sCD25 ectodomain immobilised; mean of runs
Experimental: as §1

[3] = target: T1, human recombinant soluble CD25 …; test: SPR (Biacore CM3 chip), sCD25 ectodomain immobilised; run 5
Experimental: as §1

[4] = target: T2, human CD25 on concanavalin-A activated CD25-positive human PBMCs and CD25-expressing lymphoma cell lines (human, UniProt P01589 22-272); test: flow cytometry, MFI on concanavalin-A activated CD25-positive human PBMCs (CD25-PE gate)
T2 construct: whole, on cells; also called IL2R-α; Interleukin-2 receptor-α
T2 sequence (looked up): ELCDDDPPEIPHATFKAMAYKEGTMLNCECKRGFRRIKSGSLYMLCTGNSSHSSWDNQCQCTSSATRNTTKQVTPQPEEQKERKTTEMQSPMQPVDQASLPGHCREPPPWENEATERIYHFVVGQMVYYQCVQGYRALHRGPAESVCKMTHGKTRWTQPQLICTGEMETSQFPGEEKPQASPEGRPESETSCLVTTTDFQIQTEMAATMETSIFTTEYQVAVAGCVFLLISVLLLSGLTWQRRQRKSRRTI
Experimental: FIG. 1. […] Isotype, non-targeting-ADC-FITC was used as the non-binding ADC control. The EC₅₀ was ≈0.03 μg/ml (180 pM).

[5] = target: T1, human recombinant soluble CD25 …; test: SPR (Biacore CM3 chip), sCD25 ectodomain immobilised; run 2
Experimental: as §1

[6] = target: T1, human recombinant soluble CD25 …; test: SPR (Biacore CM3 chip), sCD25 ectodomain immobilised; run 4
Experimental: as §1

[7] = target: T1, human recombinant soluble CD25 …; test: SPR (Biacore CM3 chip), sCD25 ectodomain immobilised; run 1
Experimental: as §1

[8] = target: T1, human recombinant soluble CD25 …; test: SPR (Biacore CM3 chip), sCD25 ectodomain immobilised; run 6
Experimental: as §1

B1: ADCT-301 (antibody, V domains shown)
VH: QVQLVQSGAEVKKPGSSVKVSCKASGGTFSRYIINWVRQAPGQGLEWMGRIIPILGVENYAQKFQGRVTITADKSTSTAYMELSSLRSEDTAVYYCARKDWFDYWGQGTLVTVSS
VL: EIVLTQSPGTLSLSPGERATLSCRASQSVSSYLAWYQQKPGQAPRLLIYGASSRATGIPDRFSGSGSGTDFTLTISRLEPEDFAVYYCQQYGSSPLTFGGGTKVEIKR
modifications: pyrrolobenzodiazepine (PBD) warhead attached by a cleavable linker, drug-antibody ratio 2.3±0.3; attachment residues not stated
notes: also called HuMax-TAC-E of WO2014/57119
- Kd [1]: 0.0207 nM
- Kd [2]: 0.0209 nM
- Kd [3]: 0.0212 nM
- EC50 [4]: ~0.18 nM
- Kd [5]: 0.0205 nM
- Kd [6]: 0.0179 nM
- Kd [7]: 0.0205 nM
- Kd [8]: 0.0244 nM

B2: HuMax®-TAC (antibody, V domains shown)
VH: B1 VH
VL: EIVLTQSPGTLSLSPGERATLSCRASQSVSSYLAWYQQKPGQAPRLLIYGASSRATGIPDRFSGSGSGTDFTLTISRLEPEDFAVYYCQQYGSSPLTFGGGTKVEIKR
notes: also called AB12; naked antibody
- Kd [1]: 0.0191 nM
- Kd [2]: 0.0158 nM
- Kd [3]: 0.0144 nM
- Kd [5]: 0.016 nM
- Kd [6]: 0.0148 nM
- Kd [7]: 0.0146 nM
